These results are taken from article PMC5676948, “Inactivation mechanism of N61S mutant of human FMO3 towards trimethylamine” (Scientific Reports, 2017).

Data set [1] addresses T1, human flavin-containing monooxygenase 3 (hFMO3), N61S variant (Homo sapiens, UniProt P31513, N61S).
T1 construct: gene FMO3
T1 sequence (P31513 2-532 N61S): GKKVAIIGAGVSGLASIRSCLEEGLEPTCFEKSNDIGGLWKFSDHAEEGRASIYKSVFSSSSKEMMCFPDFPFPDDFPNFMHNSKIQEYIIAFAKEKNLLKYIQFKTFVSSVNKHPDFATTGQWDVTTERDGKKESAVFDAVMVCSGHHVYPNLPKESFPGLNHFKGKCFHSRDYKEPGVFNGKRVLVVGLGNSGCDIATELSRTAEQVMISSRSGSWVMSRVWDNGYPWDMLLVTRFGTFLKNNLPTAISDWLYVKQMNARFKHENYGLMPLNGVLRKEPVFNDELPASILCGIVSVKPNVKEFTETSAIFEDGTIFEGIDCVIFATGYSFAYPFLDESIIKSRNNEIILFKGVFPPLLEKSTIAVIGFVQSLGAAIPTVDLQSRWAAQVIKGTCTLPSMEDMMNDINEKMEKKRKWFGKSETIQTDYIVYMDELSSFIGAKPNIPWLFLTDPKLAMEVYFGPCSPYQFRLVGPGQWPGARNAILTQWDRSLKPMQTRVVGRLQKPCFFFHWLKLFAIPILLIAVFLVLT
Nature of the data set: stopped-flow anaerobic FAD reduction at […] nm, Kd from kobs vs [NADPH]. Format: biochemical. As to conditions: read-out: Reduction / K d,NADPH /.

In data set [2] the target is T2, human flavin-containing monooxygenase 3 (hFMO3), wild type (Homo sapiens, UniProt P31513).
T2 construct: gene FMO3
T2 sequence (P31513 2-532): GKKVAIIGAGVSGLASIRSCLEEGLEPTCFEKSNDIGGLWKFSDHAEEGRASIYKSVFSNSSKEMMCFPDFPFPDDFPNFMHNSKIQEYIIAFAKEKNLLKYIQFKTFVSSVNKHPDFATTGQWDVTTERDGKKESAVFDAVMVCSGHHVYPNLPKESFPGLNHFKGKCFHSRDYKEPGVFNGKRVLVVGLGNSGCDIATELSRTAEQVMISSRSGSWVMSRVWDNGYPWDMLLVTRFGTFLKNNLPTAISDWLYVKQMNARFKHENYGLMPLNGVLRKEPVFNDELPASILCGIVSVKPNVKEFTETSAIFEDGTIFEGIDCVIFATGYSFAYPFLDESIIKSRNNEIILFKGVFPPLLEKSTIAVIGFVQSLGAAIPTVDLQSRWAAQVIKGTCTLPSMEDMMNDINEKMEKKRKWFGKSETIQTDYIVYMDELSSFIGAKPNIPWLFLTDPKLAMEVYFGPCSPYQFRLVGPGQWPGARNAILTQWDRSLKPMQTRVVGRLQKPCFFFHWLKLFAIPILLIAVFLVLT
The data set is described as above. The data set is classed as biochemical. The following applies: read-out: Reduction / K d,NADPH /.

Data set [3] concerns the target T2, human flavin-containing monooxygenase 3 (hFMO3), wild type. Put plainly: ITC (supported by CD and DSC thermal shifts and trypsin protection). The data set is classed as binding. In general terms: DSC measures the heat that a sample takes up or gives off during a temperature scan.
Substrate in data set [4]: CC/C(=C(\c1ccccc1)c1ccc(OCCN(C)C)cc1)c1ccccc1
Put plainly: purified protein. As to conditions: FAD, NADPH.

Substrate in data set [5]: CN(C)CCCOc1nn(Cc2ccccc2)c2ccccc12
Put plainly: purified protein. As to conditions: FAD, NADPH.

Substrate in data set [6]: Cn1cc[nH]c1=S
Nature of the data set: purified protein. As to conditions: FAD, NADPH.

Substrate in data set [7]: CN(C)C
Put plainly: purified protein. The data set is classed as biochemical, Homo sapiens. As to conditions: FAD, NADPH.

The term Km denotes the concentration of substrate that gives half-maximal velocity. As a reminder, the kcat is the number of substrate molecules converted per active site and unit of time at saturation. In general, kcat/Km refers to the turnover number divided by the Michaelis constant.

Consider `NC(=O)C1=CN([C@@H]2O[C@H](COP(=O)(O)OP(=O)(O)OC[C@H]3O[C@@H](n4cnc5c(N)ncnc54)[C@H](OP(=O)(O)O)[C@@H]3O)[C@@H](O)[C@H]2O)C=CC1` [NADPH], for which the Kd in data set [1] turned out to be 51.8 µM; in data set [2], 0.3 µM.

Consider `NC(=O)c1ccc[n+]([C@@H]2O[C@H](COP(=O)(O)OP(=O)(O)OC[C@H]3O[C@@H](n4cnc5c(N)ncnc54)[C@H](OP(=O)(O)O)[C@@H]3O)[C@@H](O)[C@H]2O)c1` [NADP^+], for which the Kd in data set [3] came to 3.7 µM.

B1: human flavin-containing monooxygenase 3 (hFMO3), N61S variant (Homo sapiens; N61S) (protein)
chain: GKKVAIIGAGVSGLASIRSCLEEGLEPTCFEKSNDIGGLWKFSDHAEEGRASIYKSVFSSSSKEMMCFPDFPFPDDFPNFMHNSKIQEYIIAFAKEKNLLKYIQFKTFVSSVNKHPDFATTGQWDVTTERDGKKESAVFDAVMVCSGHHVYPNLPKESFPGLNHFKGKCFHSRDYKEPGVFNGKRVLVVGLGNSGCDIATELSRTAEQVMISSRSGSWVMSRVWDNGYPWDMLLVTRFGTFLKNNLPTAISDWLYVKQMNARFKHENYGLMPLNGVLRKEPVFNDELPASILCGIVSVKPNVKEFTETSAIFEDGTIFEGIDCVIFATGYSFAYPFLDESIIKSRNNEIILFKGVFPPLLEKSTIAVIGFVQSLGAAIPTVDLQSRWAAQVIKGTCTLPSMEDMMNDINEKMEKKRKWFGKSETIQTDYIVYMDELSSFIGAKPNIPWLFLTDPKLAMEVYFGPCSPYQFRLVGPGQWPGARNAILTQWDRSLKPMQTRVVGRLQKPCFFFHWLKLFAIPILLIAVFLVLT
B1: the Michaelis constant (Km) in data set [4] amounted to 14.8 ± 3.4 µM; in data set [5], 417.3 ± 74.6 µM; in data set [6], 8652.1 ± 351.6 µM. The results for the kcat in data set [4], in data set [5] and in data set [6] were 0.00733 s⁻¹, 0.0333 s⁻¹ and 0.118 s⁻¹, respectively. The values for the kcat/Km in data set [4], in data set [5] and in data set [6] were 500 M⁻¹ s⁻¹, 83.3 M⁻¹ s⁻¹ and 13.3 M⁻¹ s⁻¹, respectively.

B2: human flavin-containing monooxygenase 3 (hFMO3), wild type (Homo sapiens) (protein)
chain: GKKVAIIGAGVSGLASIRSCLEEGLEPTCFEKSNDIGGLWKFSDHAEEGRASIYKSVFSNSSKEMMCFPDFPFPDDFPNFMHNSKIQEYIIAFAKEKNLLKYIQFKTFVSSVNKHPDFATTGQWDVTTERDGKKESAVFDAVMVCSGHHVYPNLPKESFPGLNHFKGKCFHSRDYKEPGVFNGKRVLVVGLGNSGCDIATELSRTAEQVMISSRSGSWVMSRVWDNGYPWDMLLVTRFGTFLKNNLPTAISDWLYVKQMNARFKHENYGLMPLNGVLRKEPVFNDELPASILCGIVSVKPNVKEFTETSAIFEDGTIFEGIDCVIFATGYSFAYPFLDESIIKSRNNEIILFKGVFPPLLEKSTIAVIGFVQSLGAAIPTVDLQSRWAAQVIKGTCTLPSMEDMMNDINEKMEKKRKWFGKSETIQTDYIVYMDELSSFIGAKPNIPWLFLTDPKLAMEVYFGPCSPYQFRLVGPGQWPGARNAILTQWDRSLKPMQTRVVGRLQKPCFFFHWLKLFAIPILLIAVFLVLT
B2: in data set [6], the Michaelis-Menten constant (Km) was found to be 14.9 ± 2.0 µM, the catalytic constant (kcat) amounted to 0.14 s⁻¹ and the specificity constant (kcat/Km) was determined as 9330 M⁻¹ s⁻¹. For the same molecule, in data set [7], the Km stood at 21.7 ± 4.6 µM, the kcat was 0.045 ± 0.00333 s⁻¹ and the kcat/Km came out at 2000 M⁻¹ s⁻¹.
